Data from patent publication EP4692367A1.

Assays:
[1] = biological target: LgBiT-p62 (Homo sapiens (Human)) (UniProt Q13501); assay: NanoBiT split-luciferase complementation in HeLa cells co-transfected with pLgBiT-p62 and pSmBiT-DDX5; each of compounds 5 to 33 at 10 uM for 24 h; luminescence 10 min after start of measurement
[2] = biological target: LgBiT-p62 (Homo sapiens (Human)) (UniProt Q13501); assay: NanoBiT split-luciferase complementation in HeLa cells co-transfected with pLgBiT-p62 and pSmBiT-DDX5; 10 uM 8-nitro-cGMP for 24 h; luminescence 10 min after start of measurement
[3] = biological target: LgBiT-p62 (Homo sapiens (Human)) (UniProt Q13501); assay: NanoBiT split-luciferase complementation in HeLa cells co-transfected with pLgBiT-p62 and pSmBiT-DDX5; 10 uM AUTAC2-2G for 12 h; luminescence 10 min after start of measurement
[4] = biological target: LgBiT-p62 (Homo sapiens (Human)) (UniProt Q13501); assay: NanoBiT split-luciferase complementation in HeLa cells co-transfected with pLgBiT-p62 and pSmBiT-DDX5; 10 uM AUTAC4-2G for 12 h; luminescence 10 min after start of measurement
[5] = biological target: LgBiT-p62 (Homo sapiens (Human)) (UniProt Q13501); assay: NanoBiT split-luciferase complementation in HeLa cells co-transfected with pLgBiT-p62 and pSmBiT-DDX5; 10 uM FBnG for 24 h; luminescence 10 min after start of measurement

Measured: emission intensity relative to cells treated with DMSO (times (fold over DMSO-treated cells))

SmBiT-DDX5, sequence (P17844 whole entry): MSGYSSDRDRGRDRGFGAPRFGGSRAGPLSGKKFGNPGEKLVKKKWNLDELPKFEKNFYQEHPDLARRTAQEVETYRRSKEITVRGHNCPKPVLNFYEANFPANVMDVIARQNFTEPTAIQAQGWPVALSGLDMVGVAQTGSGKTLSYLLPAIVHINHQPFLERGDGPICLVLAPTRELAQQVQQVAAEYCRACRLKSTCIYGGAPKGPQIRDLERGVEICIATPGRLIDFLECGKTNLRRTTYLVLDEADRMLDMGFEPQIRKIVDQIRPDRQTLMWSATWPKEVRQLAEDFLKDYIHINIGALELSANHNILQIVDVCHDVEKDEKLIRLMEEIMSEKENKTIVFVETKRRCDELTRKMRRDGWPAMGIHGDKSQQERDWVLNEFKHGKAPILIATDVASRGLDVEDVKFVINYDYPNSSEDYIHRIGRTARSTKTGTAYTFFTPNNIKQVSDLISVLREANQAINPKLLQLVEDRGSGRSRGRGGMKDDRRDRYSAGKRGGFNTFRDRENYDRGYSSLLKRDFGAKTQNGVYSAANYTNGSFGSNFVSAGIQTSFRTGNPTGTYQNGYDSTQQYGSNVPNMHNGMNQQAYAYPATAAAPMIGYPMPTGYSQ

SmBiT-DDX5 (from UniProt P17844 1-614) (enzyme)
> 1000: all assays above
